Test results: paper PMC2920134 (The Journal of neuroscience : the official journal of the …, 2010)
Read-outs that look alike come from different tables or passages of the source. Each block holds one binder with its values, some of them ahead of it.

Assays:
Experiment in all cases: pull-down
[1] = molecular target: His6-tagged NSF truncated segment (AA 197-744) (mouse, UniProt P46460 197-744)
[2] = molecular target: T1, His6-tagged NSF (AA 1-744) (mouse, UniProt P46460 1-744)
His6-tagged Arr1 = His6-tagged Arr1 (mouse, UniProt P20443 1-403)
[3] = molecular target: T1, His6-tagged NSF (AA 1-744); remark: listed apart in the source

Sequence of His6-tagged NSF truncated segment (AA 197-744) (P46460 197-744): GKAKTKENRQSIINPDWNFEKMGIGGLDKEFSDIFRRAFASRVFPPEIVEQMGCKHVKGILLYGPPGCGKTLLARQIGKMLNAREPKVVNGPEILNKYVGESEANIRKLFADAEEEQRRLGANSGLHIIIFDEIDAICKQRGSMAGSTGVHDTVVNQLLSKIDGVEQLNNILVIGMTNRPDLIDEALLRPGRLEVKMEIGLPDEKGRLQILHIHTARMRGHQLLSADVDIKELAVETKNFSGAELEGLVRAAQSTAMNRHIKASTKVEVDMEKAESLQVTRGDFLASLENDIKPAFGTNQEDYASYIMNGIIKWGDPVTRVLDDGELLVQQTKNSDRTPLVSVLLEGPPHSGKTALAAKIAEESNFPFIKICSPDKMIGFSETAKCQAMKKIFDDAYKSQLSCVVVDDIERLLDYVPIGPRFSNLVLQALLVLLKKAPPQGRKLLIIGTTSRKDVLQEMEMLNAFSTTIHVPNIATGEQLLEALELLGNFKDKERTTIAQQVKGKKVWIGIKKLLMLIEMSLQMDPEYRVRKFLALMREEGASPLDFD

binding result [1]: binds
binding result [2]: binds
B1: GST-tagged Arr1 [AA 1-403] (natural protein, mouse, UniProt P20443 1-403, looked up)
chain: MAACGKTNKSHVIFKKVSRDKSVTIYLGKRDYVDHVSQVEPVDGVVLVDPELVKGKKVYVTLTCAFRYGQEDIDVMGLTFRRDLYFSRVQVYPPVGAMSVLTQLQESLLKKLGDNTYPFLLTFPDYLPCSVMLQPAPQDVGKSCGVDFEVKAFASDITDPEEDKIPKKSSVRLLIRKVQHAPPEMGPQPSAEASWQFFMSDKPLNLSVSLSKEIYFHGEPIPVTVTVTNNTDKVVKKIKVSVEQIANVVLYSSDYYVKPVASEETQEKVQPNSTLTKTLVLVPLLANNRERRGIALDGKIKHEDTNLASSTIIKEGIDRTVMGILVSYHIKVKLTVSGFLGELTSSEVATEVPFRLMHPQPEDPAKESVQDENLVFEEFARQNLKDTGENTEGKKDEDAGQDE

binding result (His6-tagged Arr1): binds
B2: GST-tagged NSF (AA 1-250) (domain or fragment, mouse, UniProt P46460 1-250, looked up)
chain: MAGRTMQAARCPTDELSLSNCAVVNEKDFQSGQHVMVRTSPNHKYIFTLRTHPSVVPGCIAFSLPQRKWAGLSIGQDIEVALYSFDKAKQCIGTMTIEIDFLQKKNIDSNPYDTDKMAAEFIQQFNNQAFSVGQQLVFSFNDKLFGLLVKDIEAMDPSILKGEPASGKRQKIEVGLVVGNSQVAFEKAENSSLNLIGKAKTKENRQSIINPDWNFEKMGIGGLDKEFSDIFRRAFASRVFPPEIVEQMGC

binding result [3]: binds
B3: GST-tagged truncated Arr1 [AA 1-370] (domain or fragment, mouse, UniProt P20443 1-370, looked up)
chain: MAACGKTNKSHVIFKKVSRDKSVTIYLGKRDYVDHVSQVEPVDGVVLVDPELVKGKKVYVTLTCAFRYGQEDIDVMGLTFRRDLYFSRVQVYPPVGAMSVLTQLQESLLKKLGDNTYPFLLTFPDYLPCSVMLQPAPQDVGKSCGVDFEVKAFASDITDPEEDKIPKKSSVRLLIRKVQHAPPEMGPQPSAEASWQFFMSDKPLNLSVSLSKEIYFHGEPIPVTVTVTNNTDKVVKKIKVSVEQIANVVLYSSDYYVKPVASEETQEKVQPNSTLTKTLVLVPLLANNRERRGIALDGKIKHEDTNLASSTIIKEGIDRTVMGILVSYHIKVKLTVSGFLGELTSSEVATEVPFRLMHPQPEDPAKESVQ

binding result [3]: binds
B4: GST-tagged truncated Arr1 [AA 1-191] (domain or fragment, mouse, UniProt P20443 1-191, looked up)
chain: MAACGKTNKSHVIFKKVSRDKSVTIYLGKRDYVDHVSQVEPVDGVVLVDPELVKGKKVYVTLTCAFRYGQEDIDVMGLTFRRDLYFSRVQVYPPVGAMSVLTQLQESLLKKLGDNTYPFLLTFPDYLPCSVMLQPAPQDVGKSCGVDFEVKAFASDITDPEEDKIPKKSSVRLLIRKVQHAPPEMGPQPSA
